Results as given in the supplement of paper PMC7877785.
± gives the uncertainty stated by the source.

Assay: self-splicing fitness, log relative to wild type (ln ratio); higher = more splicing; Tetrahymena group I intron in knt gene, E. coli kanamycin selection, DiMSum; sequences stand for … in CUCUCU…GGAGGGAAAAGUUAUCAGGCAUGCACCUGGUAGCUAGUCUUUAAACCAAUAGAUUGCAUCGGUUUAAAAGGCAAGACCGUCAAAUUGCGGGAAAGGGGUCAACAGCCGUUCAGUACCAAGUCUCAGGGGAAACUUUGAGAUGGCCUUGCAAAGGGUAUGGUAAUAAGCUGACGGACAUGGUCCUAACCACGCAGCCAAGUCCUAAGUCAACAGAUCUUCUGUUGAUAUGGAUGCAGUUCACAGACUAAAUGUCGGUCGGGGAAGAUGUAUUCUUCUCAUAAGAUAUAGUCGGACCUCUCCUUAAUGGGAGCUAGCGGAUGAAGUGAUGCAACACUGGAGCCGCUGGGAACUAAUUUGUAUGCGAAAGUAUAUUGAUUAGUUUUGGAGUACUCGUGGUCG
In short: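 Library with all eight P1ex-region intron nucleotides randomised, intron inside the knt kanamycin-resistance gene on pET-22b(+), in E. coli BL21(DE3). Cells grew overnight at 37°C or 30°C on LB agar with or without 25 μg/mL kanamycin (plus 100 μg/mL carbenicillin, 50 μM IPTG, 0.2% rhamnose), in six replicate transformations. Pooled colonies were amplicon-sequenced on Illumina HiSeq 2500. DiMSum fitness is the error-weighted combination of wild-type-normalised replicate fold changes, kanamycin versus none.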

| Sequence | self-splicing fitness (ln) (30 °C) | self-splicing fitness (ln) (37 °C) |
| --- | --- | --- |
| UAGCAGCAAUAUUACGGUCG | 0.0447 ± 0.066 | 0.482 ± 0.094 |
| UAGCAGCAAUAUUACGGUCU | -1.22 ± 0.074 | -1.24 ± 0.086 |
| UAGCAGCAAUAUUACGGUUU | -0.986 ± 0.051 | -0.354 ± 0.067 |
| UAGCAGCAAUAUUACGUAAG | -1.91 ± 0.078 | -0.435 ± 0.091 |
| UAGCAGCAAUAUUACGUAGA | -2.62 ± 0.072 | -1.11 ± 0.079 |
| UAGCAGCAAUAUUACGUGCU | -1.12 ± 0.12 | -1.9 ± 0.16 |
| UAGCAGCAAUAUUACGUUCU | -1.45 ± 0.1 | -0.606 ± 0.12 |
| UAGCAGCAAUAUUACGUUGG | -2.36 ± 0.089 | -2.22 ± 0.12 |
| UAGGAGCAAUAUUACGAAUG | -1.64 ± 0.4 | -0.141 ± 0.49 |
| UAGGAGCAAUAUUACGACAG | -2.19 ± 0.33 | – |
| UAGGAGCAAUAUUACGACCG | 0.0998 ± 0.18 | -0.0128 ± 0.23 |
| UAGGAGCAAUAUUACGAGCA | -2.38 ± 0.17 | -1.58 ± 0.15 |
| UAGGAGCAAUAUUACGAUCA | -1.02 ± 0.2 | -0.542 ± 0.28 |
| UAGGAGCAAUAUUACGCAAG | – | -0.879 ± 0.22 |
| UAGGAGCAAUAUUACGCAGU | – | -1.96 ± 0.28 |
| UAGGAGCAAUAUUACGCGCG | -0.62 ± 0.11 | -1.29 ± 0.14 |
| UAGGAGCAAUAUUACGGAAC | – | -0.574 ± 0.4 |
| UAGGAGCAAUAUUACGGACA | -3.74 ± 0.4 | -0.442 ± 0.18 |
| UAGGAGCAAUAUUACGGCUC | -2.64 ± 0.24 | – |
| UAGGAGCAAUAUUACGGGCG | -2.73 ± 0.19 | -2.58 ± 0.23 |
| UAGGAGCAAUAUUACGGGCU | -3.12 ± 0.48 | -1.64 ± 0.4 |
| UAGGAGCAAUAUUACGGUAG | -3.52 ± 0.17 | -1.56 ± 0.13 |
| UAGGAGCAAUAUUACGUACC | -2.66 ± 0.32 | -2.69 ± 0.43 |
| UAGGAGCAAUAUUACGUAUC | -1.71 ± 0.2 | – |
| UAGGAGCAAUAUUACGUCGU | -1.72 ± 0.28 | -1.86 ± 0.35 |
| UAGGAGCAAUAUUACGUGCA | -1.88 ± 0.17 | -1.41 ± 0.19 |
| UAGGAGCAAUAUUACGUUUG | -3.19 ± 0.2 | -1.25 ± 0.22 |

| Sequence | self-splicing fitness (ln) (30 °C) | self-splicing fitness (ln) (37 °C) |
| --- | --- | --- |
| UAGUAGCAAUAUUACGACAU | -2.049 ± 0.018 | -0.934 ± 0.034 |
| UAGUAGCAAUAUUACGAGCU | – | -0.383 ± 0.21 |
| UAGUAGCAAUAUUACGAGGA | – | -1.81 ± 0.46 |
| UAGUAGCAAUAUUACGAGUU | -3.96 ± 0.28 | -2.75 ± 0.23 |
| UAGUAGCAAUAUUACGCAUG | -1.58 ± 0.092 | -0.443 ± 0.095 |
| UAGUAGCAAUAUUACGCCAA | -3.28 ± 0.29 | -2.02 ± 0.24 |
| UAGUAGCAAUAUUACGCGAA | – | -2.45 ± 0.41 |
| UAGUAGCAAUAUUACGCUAG | -1.09 ± 0.23 | 0.812 ± 0.24 |
| UAGUAGCAAUAUUACGGAAG | – | -1.83 ± 0.23 |
| UAGUAGCAAUAUUACGGAUC | -2.87 ± 0.11 | -0.854 ± 0.079 |
| UAGUAGCAAUAUUACGGGAC | -4.2 ± 0.42 | -2.27 ± 0.43 |
| UAGUAGCAAUAUUACGGGAU | -3.3 ± 0.23 | -1.97 ± 0.18 |
| UAGUAGCAAUAUUACGGGGC | -3.84 ± 0.39 | -2.68 ± 0.27 |
| UAGUAGCAAUAUUACGGGGG | -4.33 ± 0.46 | -2.8 ± 0.36 |
| UAGUAGCAAUAUUACGGUAU | -2.55 ± 0.24 | -2.39 ± 0.35 |
| UAGUAGCAAUAUUACGGUCU | -1.79 ± 0.17 | -0.706 ± 0.13 |
| UAGUAGCAAUAUUACGGUUA | -0.28 ± 0.077 | 0.03 ± 0.091 |
| UAGUAGCAAUAUUACGUAUU | -4.59 ± 0.36 | -1.96 ± 0.2 |
| UAGUAGCAAUAUUACGUCAG | – | -0.99 ± 0.22 |
| UAGUAGCAAUAUUACGUCGA | -1.6 ± 0.17 | -1.24 ± 0.16 |
| UAGUAGCAAUAUUACGUGAA | -3.8 ± 0.35 | -1.07 ± 0.18 |
| UAGUAGCAAUAUUACGUGAG | -1.3 ± 0.074 | -1.87 ± 0.12 |
| UAGUAGCAAUAUUACGUUCU | -1.88 ± 0.12 | -0.844 ± 0.098 |
| UAGUAGCAAUAUUACGUUUA | -1.48 ± 0.16 | -1.22 ± 0.14 |
| UAUAAGCAAUAUUACGACAA | 0.0108 ± 0.14 | -0.202 ± 0.17 |
| UAUAAGCAAUAUUACGACGA | -0.51 ± 0.14 | -1.36 ± 0.15 |
| UAUAAGCAAUAUUACGACGU | -1.12 ± 0.11 | -0.116 ± 0.11 |

| Sequence | self-splicing fitness (ln) (30 °C) | self-splicing fitness (ln) (37 °C) |
| --- | --- | --- |
| UAUAAGCAAUAUUACGAUAU | -2.9 ± 0.21 | -1.96 ± 0.2 |
| UAUAAGCAAUAUUACGAUCG | -0.0932 ± 0.12 | -0.23 ± 0.13 |
| UAUAAGCAAUAUUACGCAGC | -2.5 ± 0.23 | -2.43 ± 0.3 |
| UAUAAGCAAUAUUACGCGCA | -0.204 ± 0.11 | 0.304 ± 0.14 |
| UAUAAGCAAUAUUACGCGUA | -1.84 ± 0.2 | -0.627 ± 0.17 |
| UAUAAGCAAUAUUACGCUCA | -0.3 ± 0.14 | 0.688 ± 0.21 |
| UAUAAGCAAUAUUACGCUUU | -4.08 ± 0.35 | -2.77 ± 0.3 |
| UAUAAGCAAUAUUACGGAUU | -3.03 ± 0.21 | -1.51 ± 0.19 |
| UAUAAGCAAUAUUACGGGGG | -3.88 ± 0.29 | -3.09 ± 0.24 |
| UAUAAGCAAUAUUACGGUAA | -2.02 ± 0.2 | -0.715 ± 0.14 |
| UAUAAGCAAUAUUACGGUCU | -1.22 ± 0.13 | -1.05 ± 0.17 |
| UAUAAGCAAUAUUACGUAAU | -3.56 ± 0.37 | -0.822 ± 0.19 |
| UAUAAGCAAUAUUACGUACU | -1.69 ± 0.16 | -0.993 ± 0.11 |
| UAUAAGCAAUAUUACGUAGA | -1.89 ± 0.11 | -0.959 ± 0.13 |
| UAUAAGCAAUAUUACGUCAG | -1.22 ± 0.11 | -0.547 ± 0.17 |
| UAUAAGCAAUAUUACGUCAU | -3.37 ± 0.22 | -0.173 ± 0.15 |
| UAUAAGCAAUAUUACGUGAC | -2.15 ± 0.19 | -0.695 ± 0.3 |
| UAUAAGCAAUAUUACGUGAU | -1.89 ± 0.13 | -1.45 ± 0.17 |
| UAUAAGCAAUAUUACGUGGU | -3.76 ± 0.29 | -2.53 ± 0.21 |
| UAUAAGCAAUAUUACGUUGG | -2.78 ± 0.13 | -2.23 ± 0.17 |
| UAUCAGCAAUAUUACGACCU | -0.529 ± 0.071 | 0.112 ± 0.1 |
| UAUCAGCAAUAUUACGACGC | -2.09 ± 0.13 | -0.508 ± 0.13 |
| UAUCAGCAAUAUUACGCAGG | -1.01 ± 0.055 | 0.028 ± 0.07 |
| UAUCAGCAAUAUUACGCCAG | -0.548 ± 0.15 | -0.584 ± 0.18 |
| UAUCAGCAAUAUUACGCCCC | 1 ± 0.34 | -1.06 ± 0.41 |
| UAUCAGCAAUAUUACGCCUC | – | -1.96 ± 0.47 |
